Data on six molecules can be found in patent US20200164085A1 (Merck Sharp & Dohme, published 2020).

Some results are limits rather than exact numbers.

In the experiment the target is T1, human CD74 (human, UniProt P04233 1-296).
T1 sequence (looked up): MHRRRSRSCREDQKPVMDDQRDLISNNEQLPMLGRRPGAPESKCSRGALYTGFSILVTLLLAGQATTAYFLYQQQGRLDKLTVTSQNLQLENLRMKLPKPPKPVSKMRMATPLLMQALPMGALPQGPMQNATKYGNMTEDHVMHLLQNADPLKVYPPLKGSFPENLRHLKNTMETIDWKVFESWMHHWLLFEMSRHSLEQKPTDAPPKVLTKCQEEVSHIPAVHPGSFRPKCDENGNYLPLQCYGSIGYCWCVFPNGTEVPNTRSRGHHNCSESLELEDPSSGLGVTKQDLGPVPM
Description: cell-based or functional assay.

B1: ADC 12-5 (anti-hCD74 (LL1) conjugated to Linker 2-7) (antibody, human IgG1, kappa, V domains shown)
VH: QVQLQQSGSELKKPGASVKVSCKASGYTFTNYGVNWIKQAPGQGLQWMGWINPNTGEPTFDDDFKGRFAFSLDTSVSTAYLQISSLKADDTAVYFCSRSRGKNEAWFAYWGQGSLVTVSS
VL: DIQLTQSPLSLPVTLGQPASISCRSSQSLVHRNGNTYLHWFQQRPGQSPRLLIYTVSNRFSGVPDRFSGSGSGTDFTLKISRVEAEDVGVYFCSQSSHVPPTFGAGTRLEIKR
modifications: position 121 is para-azido phenylalanine (pAzF), conjugated to dexamethasone drug-linker 2-7
In the case of B1, the “EC50, GILZ mRNA, HUT-78 cells” value was found to be 1.32 µg/mL; the “EC50, GILZ mRNA, SUDHL-6 cells” value is 0.4 µg/mL; the “Emax, GILZ mRNA, HUT-78 cells” value was 4.13; the “Emax, GILZ mRNA, SUDHL-6 cells” value was determined as 3.4.

B2: ADC 12-6 (anti-hCD74 (LL1) conjugated to Linker 3-4) (antibody, human IgG1, kappa, V domains shown)
VH: B1 VH
VL: B1 VL
modifications: position 121 is para-azido phenylalanine (pAzF), conjugated to dexamethasone drug-linker 3-4
Turning to B2, the “EC50, GILZ mRNA, HUT-78 cells” value was 1.87 µg/mL; the “EC50, GILZ mRNA, SUDHL-6 cells” value was determined as 0.47 µg/mL; the “Emax, GILZ mRNA, HUT-78 cells” value came out at 4.61; the “Emax, GILZ mRNA, SUDHL-6 cells” value amounted to 3.33.

B3: ADC 12-4 (anti-hCD74 (LL1) conjugated to Linker 1-4) (antibody, human IgG1, kappa, V domains shown)
VH: B1 VH
VL: B1 VL
modifications: position 121 is para-azido phenylalanine (pAzF), conjugated to dexamethasone drug-linker 1-4
On to B3, for which the “EC50, GILZ mRNA, HUT-78 cells” value stood at 1.08 µg/mL; the “EC50, GILZ mRNA, SUDHL-6 cells” value was found to be 0.99 µg/mL; the “Emax, GILZ mRNA, HUT-78 cells” value is 3.95; the “Emax, GILZ mRNA, SUDHL-6 cells” value came to 3.44.

B4: ADC 12-7 (anti-hCD74 (LL1) conjugated to Linker 4-3) (antibody, human IgG1, kappa, V domains shown)
VH: B1 VH
VL: B1 VL
modifications: position 121 is para-azido phenylalanine (pAzF), conjugated to dexamethasone drug-linker 4-3
Turning to B4, the “EC50, GILZ mRNA, HUT-78 cells” value was over 30 µg/mL; the “EC50, GILZ mRNA, SUDHL-6 cells” value was determined as 14.3 µg/mL; the “Emax, GILZ mRNA, HUT-78 cells” value amounted to 1.93; the “Emax, GILZ mRNA, SUDHL-6 cells” value stood at 1.52.

B5: ADC 12-9 (anti-hCD74 (LL1) conjugated to Linker 6-2) (antibody, human IgG1, kappa, V domains shown)
VH: B1 VH
VL: B1 VL
modifications: position 121 is para-azido phenylalanine (pAzF), conjugated to dexamethasone drug-linker 6-2
For the molecule B5, the “EC50, GILZ mRNA, HUT-78 cells” value is over 30 µg/mL; the “EC50, GILZ mRNA, SUDHL-6 cells” value is over 30 µg/mL; the “Emax, GILZ mRNA, HUT-78 cells” value was found to be 2.55; the “Emax, GILZ mRNA, SUDHL-6 cells” value came to 6.48.

B6: ADC 12-10 (anti-hCD74 (LL1) conjugated to Linker 9-4) (antibody, human IgG1, kappa, V domains shown)
VH: B1 VH
VL: B1 VL
modifications: position 121 is para-azido phenylalanine (pAzF), conjugated to budesonide drug-linker 9-4
Consider B6, for which the “EC50, GILZ mRNA, HUT-78 cells” value turned out to be 0.2 µg/mL; the “EC50, GILZ mRNA, SUDHL-6 cells” value was determined as 0.21 µg/mL; the “Emax, GILZ mRNA, HUT-78 cells” value amounted to 6.47; the “Emax, GILZ mRNA, SUDHL-6 cells” value was 5.89.
